Consider one molecule from article PMC6097844.

For this series, the target named is Bh-RNase HC (RNase H1 catalytic domain) (Bacillus halodurans, UniProt Q9KEI9 59-196). The experiment in a line: X-ray crystallography.
Sequence of Bh-RNase HC (RNase H1 catalytic domain) (Q9KEI9 59-196): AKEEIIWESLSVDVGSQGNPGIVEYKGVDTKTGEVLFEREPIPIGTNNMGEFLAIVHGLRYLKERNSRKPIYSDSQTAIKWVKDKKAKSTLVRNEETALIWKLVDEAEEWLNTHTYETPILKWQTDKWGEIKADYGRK

B1: RNA/DNA hybrid 6-mer (DNA:RNA)
RNA: ACAUCG
DNA: CGATGT
modifications: strand 1 printed ArCrArUrCG: ribonucleotides at 2-5, deoxy A1 and G6; strand 2 all DNA
For the molecule B1, the binding result is “binds”.
